pKd: −log10 of the molar value.
Molecular target: BG505 SOSIP.664 Env trimer (HIV-1 (BG505))
Assay: BLI; biotinylated BG505 SOSIP.664 trimer (10 µg/mL) captured on Streptavidin biosensors; ScFv in 2-fold dilution series starting at 500 nM; 1:1 binding model, global fit; KD = koff/kon

VRC01 ScFv (parental ScFv)
pKd: > 12.00 | koff: < 1e-07 s⁻¹

From article PMC5830440
